Consider one substance from PMC2979009.

The target of this assay is subtilisin pS169 (A1C mutant of S189), labeled with Alexafluor 350 maleimide (Bacillus amyloliquefaciens).

Usually Kd stands for the constant that tells how readily two partners part at equilibrium.

For the substance “P1 (residues 1−77 of pG12), the prodomain product left after cleavage (domain or fragment)”, the Kd is < 1 nM.
